Usually stoichiometry N stands for a count of units in the complex or per binding partner.

These results are taken from article doi:10.1101/851345.

Assay [1] has as its target TerS^P74-26, small terminase of the thermophilic bacteriophage P74-26 (gp83) (bacteriophage P74-26). Briefly: SEC-MALS. (In general: In gel filtration, larger molecules generally elute earlier.)
For assay [2], the target named is TerL^P74-26, large terminase of bacteriophage P74-26 (bacteriophage P74-26).

In the case of “TerS^P74-26, small terminase of the thermophilic bacteriophage P74-26 (gp83) (natural protein)”, in assay [1], the stoichiometry N is 9. For the same substance, the ATPase activity of TerL^P74-26 upon mixing with gp83, no DNA present in assay [2] was found to be 4.4 fold.
